According to publication PMC7213981, “Enhancer architecture sensitizes cell specific responses to Notch gene dose via a bind and discard mechanism” (eLife, 2019):

T1: fly NICD (aa 1763–2412) (Drosophila, UniProt P07207 1763-2412)
T1 construct: Notch intracellular domain, Drosophila, residues 1763-2412; not the full-length NICD; also called Notch intracellular domain
T1 sequence (looked up): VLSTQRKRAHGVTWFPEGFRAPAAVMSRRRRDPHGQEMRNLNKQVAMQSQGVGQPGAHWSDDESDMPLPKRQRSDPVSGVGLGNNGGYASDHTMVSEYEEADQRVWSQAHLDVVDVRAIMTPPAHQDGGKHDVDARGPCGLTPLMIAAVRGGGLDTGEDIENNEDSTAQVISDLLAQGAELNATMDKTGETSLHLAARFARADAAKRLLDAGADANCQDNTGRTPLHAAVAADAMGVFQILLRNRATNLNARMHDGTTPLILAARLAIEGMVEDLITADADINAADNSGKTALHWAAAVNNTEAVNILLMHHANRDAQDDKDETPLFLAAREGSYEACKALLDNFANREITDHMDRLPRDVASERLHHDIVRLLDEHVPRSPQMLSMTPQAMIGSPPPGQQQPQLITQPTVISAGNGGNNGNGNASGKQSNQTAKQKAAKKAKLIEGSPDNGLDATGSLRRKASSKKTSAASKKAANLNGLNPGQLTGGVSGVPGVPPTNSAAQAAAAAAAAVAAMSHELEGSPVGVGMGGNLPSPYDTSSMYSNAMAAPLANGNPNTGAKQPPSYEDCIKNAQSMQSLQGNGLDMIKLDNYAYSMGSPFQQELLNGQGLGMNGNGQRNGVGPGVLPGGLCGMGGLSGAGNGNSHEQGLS

B1: fly Su(H) (aa 98–523) (domain or fragment)
chain: not shown
notes: Suppressor of Hairless, Drosophila, residues 98-523; also called CSL

Experiments:
Assay in all cases: native gel or EMSA; complexes formed on IRDye-labelled 2xCSL and 1xSPS DNA probes in the same binding reaction; RBPJ/Su(H) 10 to 320 nM, 1 µM NICD/Mastermind; native polyacrylamide gel
Conditions in all cases: both partners purified
mouse RBPJ (aa 53–474) = target: T2, mouse RBPJ (aa 53–474) (mouse, UniProt P31266 53-474)
T2 construct: RBPJ, mouse, residues 53-474; also called CSL

fly NICD (aa 1763–2412) = target: T1, fly NICD (aa 1763–2412)
fly Su(H) (aa 98–523) = target: B1
fly Su(H) (aa 98–523), sequence (P28159 98-523): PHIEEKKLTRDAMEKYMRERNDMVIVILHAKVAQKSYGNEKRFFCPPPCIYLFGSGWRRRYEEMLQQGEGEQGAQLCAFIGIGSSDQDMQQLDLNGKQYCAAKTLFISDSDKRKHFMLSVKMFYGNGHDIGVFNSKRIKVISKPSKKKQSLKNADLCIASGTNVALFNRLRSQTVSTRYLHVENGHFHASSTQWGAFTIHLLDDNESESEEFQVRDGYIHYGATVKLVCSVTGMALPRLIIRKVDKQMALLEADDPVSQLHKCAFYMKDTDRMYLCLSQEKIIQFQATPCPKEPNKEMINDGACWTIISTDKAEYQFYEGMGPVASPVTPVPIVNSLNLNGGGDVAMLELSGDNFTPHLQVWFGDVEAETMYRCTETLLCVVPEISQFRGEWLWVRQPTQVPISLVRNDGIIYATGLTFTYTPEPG

T2 sequence (P31266 53-474): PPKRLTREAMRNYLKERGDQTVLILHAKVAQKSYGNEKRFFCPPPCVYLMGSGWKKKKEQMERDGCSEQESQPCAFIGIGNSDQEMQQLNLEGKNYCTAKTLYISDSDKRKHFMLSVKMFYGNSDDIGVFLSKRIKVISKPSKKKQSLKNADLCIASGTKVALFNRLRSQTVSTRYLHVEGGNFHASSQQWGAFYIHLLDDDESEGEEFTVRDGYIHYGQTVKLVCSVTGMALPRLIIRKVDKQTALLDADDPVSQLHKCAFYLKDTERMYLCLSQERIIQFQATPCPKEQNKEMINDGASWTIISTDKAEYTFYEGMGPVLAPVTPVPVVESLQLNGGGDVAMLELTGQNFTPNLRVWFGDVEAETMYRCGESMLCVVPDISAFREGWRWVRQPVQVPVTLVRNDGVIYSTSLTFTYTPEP

Row | binding result (mouse RBPJ (aa 53–474)) | Binder | further results
1 | binds | mouse N1ICD (aa 1744–2113) (domain or fragment, UniProt Q01705 1744-2113, looked up, Notch1 intracellular domain, mouse, residues 1744-2113; not the full-length NICD; also called N1ICD1; NICD) VLLSRKRRRQHGQLWFPEGFKVSEASKKKRREPLGEDSVGLKPLKNASDGALMDDNQNEWGDEDLETKKFRFEEPVVLPDLSDQTDHRQWTQQHLDAADLRMSAMAPTPPQGEVDADCMDVNVRGPDGFTPLMIASCSGGGLETGNSEEEEDAPAVISDFIYQGASLHNQTDRTGETALHLAARYSRSDAAKRLLEASADANIQDNMGRTPLHAAVSADAQGVFQILLRNRATDLDARMHDGTTPLILAARLAVEGMLEDLINSHADVNAVDDLGKSALHWAAAVNNVDAAVVLLKNGANKDMQNNKEETPLFLAAREGSYETAKVLLDHFANRDITDHMDRLPRDIAQERMHHDIVRLLDEYNLVRSPQ | 
2 |  | B1 | binding result (fly NICD (aa 1763–2412)): binds
3 | binds | human MAML1 (aa 1–280) (domain or fragment, UniProt Q92585 1-280, looked up, Mastermind-like protein 1, human, residues 1-280; not the full-length protein; The results list MAML1 among the 'mouse' proteins, the methods say human MAML1; also called Mastermind) MVLPTCPMAEFALPRHSAVMERLRRRIELCRRHHSTCEARYEAVSPERLELERQHTFALHQRCIQAKAKRAGKHRQPPAATAPAPAAPAPRLDAADGPEHGRPATHLHDTVKRNLDSATSPQNGDQQNGYGDLFPGHKKTRREAPLGVAISSNGLPPASPLGQSDKPSGADALQSSGKHSLGLDSLNKKRLADSSLHLNGGSNPSESFPLSLNKELKQEPVEDLPCMITGTVGSISQSNLMPDLNLNEQEWKELIEELNRSVPDEDMKDLFNEDFEEKKD | 
4 |  | fly Mastermind (aa 87–307) (domain or fragment, Drosophila, UniProt P21519 87-307, looked up, Mastermind, Drosophila, residues 87-307; not the full-length protein; also called Mam) PYNANLGATGGIAGITGGNGAGGPTNPGAVPTAPGDTMPTKRMPVVDRLRRRMENYRRRQTDCVPRYEQAFNTVCEQQNQETTVLQKRFLESKNKRAAKKTDKKLPDPSQQHQQQQHQQQQQHQQHQQHQQAQTMLAGQLQSSVHVQQKFLKRPAEDVDNGPDSFEPPHKLPNNNNNSNSNNNNGNANANNGGNGSNTGNNTNNNGNSTNNNGGSNNNGSE | binding result (fly Su(H) (aa 98–523)): binds
